The record followed here is US20170252458A1 (EISAI R AND D MANAGEMENT, published 2017).

To fix the notation:
B1: MORAb-003 (antibody, human IgG1, kappa, V domains shown)
VH: EVQLVESGGGVVQPGRSLRLSCSASGFTFSGYGLSWVRQAPGKGLEWVAMISSGGSYTYYADSVKGRFAISRDNAKNTLFLQMDSLRPEDTGVYFCARHGDDPAWFAYWGQGTPVTVSS
VL: DIQLTQSPSSLSASVGDRVTITCSVSSSISSNNLHWYQQKPGKAPKPWIYGTSNLASGVPSRFSGSGSGTDYTFTISSLQPEDIATYYCQQWSSYPYMYTFGQGTKVEIKR
notes: Humanized anti-human folate receptor alpha, unconjugated; also called farletuzumab
B2: MORAb003-ER1242288 (antibody, human IgG1, kappa, V domains shown)
VH: B1 VH
VL: B1 VL
modifications: NHS-PEG9-Val-Cit-pAB-eribulin on lysines, sites not given
notes: Antibody-drug conjugate preparation; DAR 0.00 (LC-MS)
B3: MORAb003-ER1159569 (Lot NB3142-62A) (antibody, human IgG1, kappa, V domains shown)
VH: B1 VH
VL: B1 VL
modifications: Mal-PEG2-Val-Cit-pAB-eribulin on interchain cysteines, sites not given
notes: Antibody-drug conjugate; also called MORAb-003-VCP-eribulin
B4: MORAb003-ER1243700 (antibody, human IgG1, kappa, V domains shown)
VH: B1 VH
VL: B1 VL
modifications: NHS-PEG3-triazole-PEG3-Val-Cit-pAB-eribulin on lysines, sites not given
notes: as for B2
B5: MORAb003-PEG2-eribulin (antibody, human IgG1, kappa, V domains shown)
VH: B1 VH
VL: B1 VL
modifications: Mal-PEG2-eribulin (non-cleavable) on interchain cysteines, sites not given
notes: Antibody-drug conjugate
B6: MORAb003-DBCO-PEG4 eribulin (antibody, human IgG1, kappa, V domains shown)
VH: B1 VH
VL: B1 VL
modifications: NHS-PEG4-DBCO on lysines, then azido-PEG4-eribulin by SPAAC; sites not given
notes: Antibody-drug conjugate
B7: MORAb003-ER1237505 (antibody, human IgG1, kappa, V domains shown)
VH: B1 VH
VL: B1 VL
modifications: Mal-PEG4-triazole-PEG3-sulfonamide-pAB-eribulin on interchain cysteines, sites not given
notes: Antibody-drug conjugate
B8: MORAb003-DBCO-PEG2 eribulin (antibody, human IgG1, kappa, V domains shown)
VH: B1 VH
VL: B1 VL
modifications: NHS-PEG4-DBCO on lysines, then azido-PEG2-eribulin by SPAAC; sites not given
notes: Antibody-drug conjugate
B9: MORAb003-DBCO-PEG4 VCP eribulin (antibody, human IgG1, kappa, V domains shown)
VH: B1 VH
VL: B1 VL
modifications: NHS-PEG4-DBCO on lysines, then azido-PEG4-Val-Cit-pAB-eribulin by SPAAC; sites not given
notes: Antibody-drug conjugate
B10: MORAb003-DBCO-ER1138856 (antibody, human IgG1, kappa, V domains shown)
VH: B1 VH
VL: B1 VL
modifications: NHS-PEG4-DBCO on lysines, then azide-PEG3-sulfonamide-pAB-eribulin by SPAAC; sites not given
notes: Antibody-drug conjugate
B11: MORAb003-ER1235638 (antibody, human IgG1, kappa, V domains shown)
VH: B1 VH
VL: B1 VL
modifications: Mal-(CH2)5-Val-Cit-pAB-eribulin on interchain cysteines, sites not given
notes: Antibody-drug conjugate
B12: MORAb003-DBCO-ER1237508 (antibody, human IgG1, kappa, V domains shown)
VH: B1 VH
VL: B1 VL
modifications: NHS-PEG4-DBCO on lysines, then azide-PEG3-disulfide-pAB-eribulin by SPAAC; sites not given
notes: Antibody-drug conjugate
B13: MORAb003-ER1231690 (antibody, human IgG1, kappa, V domains shown)
VH: B1 VH
VL: B1 VL
modifications: Mal-PEG2-(Ala-Ala-Asn-pAB)2-eribulin on interchain cysteines, sites not given
notes: Antibody-drug conjugate
B14: MORAb003-ER1236941 (antibody, human IgG1, kappa, V domains shown)
VH: B1 VH
VL: B1 VL
modifications: NHS-(CH2)5-Val-Cit-pAB-eribulin on lysines, sites not given
notes: Antibody-drug conjugate; DAR 0.77 (LC-MS)
B15: MORAb003-ER1159569 (Lot NB3073-88L) (antibody, human IgG1, kappa, V domains shown)
VH: B1 VH
VL: B1 VL
modifications: Mal-PEG2-Val-Cit-pAB-eribulin on interchain cysteines, sites not given
notes: as for B3
B16: MORAb003-PEG4-eribulin (antibody, human IgG1, kappa, V domains shown)
VH: B1 VH
VL: B1 VL
modifications: Mal-PEG4-eribulin (non-cleavable) on interchain cysteines, sites not given
notes: Antibody-drug conjugate
B17: MORAb003-ER1231679 (antibody, human IgG1, kappa, V domains shown)
VH: B1 VH
VL: B1 VL
modifications: Mal-PEG2-Ala-Ala-Asn-pAB-eribulin on interchain cysteines, sites not given
notes: Antibody-drug conjugate
B18: MORAb003-ER1237504 (antibody, human IgG1, kappa, V domains shown)
VH: B1 VH
VL: B1 VL
modifications: Mal-PEG4-triazole-PEG3-disulfide-pAB-eribulin on interchain cysteines, sites not given
notes: Antibody-drug conjugate
B19: MORAb003-ER1242287 (antibody, human IgG1, kappa, V domains shown)
VH: B1 VH
VL: B1 VL
modifications: Mal-PEG8-Val-Cit-pAB-eribulin on interchain cysteines, sites not given
notes: Antibody-drug conjugate
B20: MORAb003-ER1236940 (antibody, human IgG1, kappa, V domains shown)
VH: B1 VH
VL: B1 VL
modifications: NHS-PEG2-Val-Cit-pAB-eribulin on lysines, sites not given
notes: Antibody-drug conjugate; DAR 0.72 (LC-MS)
B21: MORAb003-ER1244623 (antibody, human IgG1, kappa, V domains shown)
VH: B1 VH
VL: B1 VL
modifications: NHS-PEG3-triazole-PEG3-sulfonamide-pAB-eribulin on lysines, sites not given
notes: Antibody-drug conjugate; DAR 0.55 (LC-MS)
B22: MORAb003-ER1244129 (antibody, human IgG1, kappa, V domains shown)
VH: B1 VH
VL: B1 VL
modifications: NHS-PEG3-triazole-PEG3-disulfide-pAB-eribulin on lysines, sites not given
notes: Antibody-drug conjugate; DAR 0.24 (LC-MS)
B23: MORAb003-ER1231691 (antibody, human IgG1, kappa, V domains shown)
VH: B1 VH
VL: B1 VL
modifications: NHS-PEG2-Ala-Ala-Asn-pAB-eribulin on lysines, sites not given
notes: Antibody-drug conjugate; DAR 0.37 (LC-MS)
B24: 346C6-xi (antibody, human IgG1, kappa, V domains shown)
VH: QSVEESGGRLVKPDESLTLTCTASGFSLSSYAMIWVRQAPGEGLEWIGTISTGGITYYASWAKGRFTISKTSTTVDLKITSPTTEDTATYFCARGGYAASSAYYLPYYFDLWGQGTLVTVSS
VL: AAVLTQTPSPVSAAVGGTVTISCQSSQSVYNNNNLAWFQQKPGQPPKLLIYLASTLASGVPSRFSGSGSGTQFTLTISGVQCDDAATYYCLGGCDDDADTFAFGGGTEVVVKR
notes: Rabbit-human chimeric anti-human mesothelin with unpaired cysteine at LCcys80; parental mAb in Biacore
B25: 201C15-xi (antibody, human IgG1, kappa, V domains shown)
VH: QSVKESGGRLVTPGTPLTLTCTVSGIDLSSYAMGWFRQAPGKGLEYIGTINIGGRVYYASWAKGRFTISRTSTTVDLKAPSLTAEDTATYFCARYYNGGSYDIWGPGTLVTVSL
VL: DVVMTQTPASASEPVGGTVTIKCQASESIYRVLAWYQQKPGQPPKLLIYDTSTLASGAPSRFKGSGYGTEFTLTISGVQCEDAATYYCQGGYYADSYGIAFGGGTEVVVKR
notes: as for B24
B26: 111B10-zu (antibody, human IgG1, kappa, V domains shown)
VH: EVQLVESGGGLVQPGGSLRLSCAASGFSLNNYAMSWVRQAPGKGLEWIGSISTGGLAFYANWAKGRFTISRDNSKNTLYLQMNSLRAEDTAVYYCARNGGGSYIFYYFDLWGQGTLVTVSS
VL: DIQMTQSPSSLSASVGDRVTITCQASQSISSYLSWYQQKPGKAPKLLIYSASTLASGVPSRFSGSGSGTDFTLTISSLQCEDAATYYCQSYYDIGTSTFGGGTKVEIKR
notes: Humanized anti-human mesothelin with unpaired cysteine at LCcys80; parental mAb in Biacore; also called 111810 zu
B27: 201C15-zu (antibody, human IgG1, kappa, V domains shown)
VH: QVQLVESGGGLVQPGGSLRLSCSASGIDLSSYAMGWVRQAPGKGLEYIGTINIGGRVYYASWAKGRFTISRDNSKNTLYLQMNSLRAEDTAVYYCARYYNGGSYDIWGQGTLVTVSS
VL: DIQMTQSPSTLSASVGDRVTITCQASESIYRVLAWYQQKPGKAPKLLIYDTSTLASGVPSRFSGSGSGTEFTLTISSLQCDDAATYYCQGGYYADSYGIAFGGGTKVEIKR
notes: Humanized anti-human mesothelin with unpaired cysteine at LCcys80; parental mAb in Biacore
B28: 346C6-zu (antibody, human IgG1, kappa, V domains shown)
VH: EVQLVESGGGLVQPGGSLRLSCAASGFSLSSYAMIWVRQAPGKGLEWIGTISTGGITYYASWAKGRFTISRDNSKNTLYLQMNSLRAEDTAVYYCARGGYAASSAYYLPYYFDLWGQGTLVTVSS
VL: DIQMTQSPSSLSASVGDRVTITCQSSQSVYNNNNLAWYQQKPGKVPKLLIYLASTLASGVPSRFSGSGSGTDFTLTISSLQCEDAATYYCLGGCDDDADTFAFGGGTKVEIKR
notes: as for B27

Values joined by “and” are separate entries in the source; they are usually repeats but may differ in a detail not shown here. Equal entries are not always repeated.

The target of one assay is T1, Recombinant human folate receptor alpha (human, UniProt P15328 25-234).
T1 construct: also called FRA; FR
T1 sequence (P15328 25-234 limits assumed): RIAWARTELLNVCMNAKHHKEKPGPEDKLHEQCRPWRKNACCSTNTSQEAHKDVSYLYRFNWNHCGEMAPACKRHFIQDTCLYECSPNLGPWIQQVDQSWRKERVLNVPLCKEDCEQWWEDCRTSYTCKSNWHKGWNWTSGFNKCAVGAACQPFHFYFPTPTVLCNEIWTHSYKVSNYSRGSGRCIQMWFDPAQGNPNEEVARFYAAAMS
Nature of the assay: ELISA, recombinant human FRA coated. The protocol:
Coating solution was discarded and the plates were washed three times using 1× PBS with 0.05% Tween-20 (PBST) buffer. Plates were blocked in 300 μL blocking buffer (1% BSA in PBST) at room temperature for 2 hours on an orbital shaker. […] Blocking buffer was discarded and 100 μL/well of diluted antibody was added to the plates. Plates were incubated at room temperature for 2 hours on an orbital shaker. Antibody solution was discarded and plates were washed three times using PBST. 100 μL/well of goat-anti-human IgG (H+L)-HRP (1:10,000 dilution in blocking buffer) solution was added to the plates, and plates were incubated at room temperature for 1 hour on an orbital shaker. Secondary antibody solution was discarded and plates were washed three times using PBST. 100 μL/well of QuantaBlu fluorogenic peroxidase substrate working solution (Thermo, Cat No. 15169) was added to the plates, and plates were incubated at room temperature for 30 min. Fluorescence was read at excitation 325 nm/emission 420 nm using a SpectraMax M5 (Molecular Devices). Data was analyzed using SoftMaxPro 5.4.2 software with 4-parameter fitting.
For orientation: ELISA stands for enzyme-linked immunosorbent assay.
Turning to B1, the EC50 is 0.00629 µg/mL and 0.04 nM.

Take B2: the EC50 was 0.0144 µg/mL and 0.1 nM.

As to B3, the EC50 is 0.12 nM and 0.0182 µg/mL.

For the molecule B4, the EC50 is 0.00622 µg/mL and 0.04 nM.

With B5, the EC50 is 0.00696 µg/mL and 0.05 nM.

On to B6, for which the EC50 was 0.0133 µg/mL and 0.09 nM.

B7: the EC50 is 0.0183 µg/mL and 0.12 nM.

As to B8, the EC50 was 0.0191 µg/mL and 0.13 nM.

Take B9: the EC50 is 0.016 µg/mL and 0.11 nM.

With B10, the EC50 is 0.015 µg/mL and 0.1 nM.

As for B11, the EC50 is 0.0153 µg/mL and 0.1 nM.

As for B12, the 50% effective concentration (EC50) was 0.0241 µg/mL and 0.16 nM.

Consider B13, for which the concentration for a half-maximal effect (EC50) was 0.00892 µg/mL and 0.06 nM.

B14: the 50% effective concentration (EC50) was 0.013 µg/mL and 0.09 nM.

In the case of B15, the EC50 was 0.0226 µg/mL and 0.15 nM.

Regarding B16, the EC50 was 0.00931 µg/mL and 0.06 nM.

For the molecule B17, the concentration for a half-maximal effect (EC50) was 0.0183 µg/mL and 0.12 nM.

For B18, the EC50 is 0.0298 µg/mL and 0.2 nM.

On to B19, for which the EC50 was 0.0215 µg/mL and 0.14 nM.

Regarding B20, the EC50 was 0.017 µg/mL and 0.11 nM.

For the molecule B21, the EC50 is 0.00454 µg/mL and 0.03 nM.

On to B22, for which the EC50 was 0.0143 µg/mL and 0.1 nM.

Consider B23, for which the EC50 is 0.0115 µg/mL and 0.08 nM.

A further assay deals with T2, Recombinant human mesothelin (human, UniProt Q13421 296-580, limits assumed).
T2 construct: also called MSLN
T2 sequence (Q13421 other isoform, or with tags, fused parts or gaps limits assumed): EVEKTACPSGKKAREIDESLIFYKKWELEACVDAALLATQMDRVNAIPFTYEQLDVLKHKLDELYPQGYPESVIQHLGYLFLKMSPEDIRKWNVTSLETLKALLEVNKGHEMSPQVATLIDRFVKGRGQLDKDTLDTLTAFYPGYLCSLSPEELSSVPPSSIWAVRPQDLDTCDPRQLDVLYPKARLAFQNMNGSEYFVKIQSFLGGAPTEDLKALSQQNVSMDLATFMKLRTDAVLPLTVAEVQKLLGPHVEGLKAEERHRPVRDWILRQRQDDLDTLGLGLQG
Put plainly: Biacore T100, antibody captured on anti-human IgG, antigen injected, 1:1 Langmuir. Here is the method:
Antibody concentrations were adjusted to 2 μg/mL in HBS-P+ buffer (GE Healthcare). Unmodified antibodies, or ADCs, were injected over an anti-human IgG sensor on a BIAcore T100 (GE Healthcare) for 1 min at a flow rate of 10 μL/min. To record the antigen association to the captured antibody, a series of increasing concentrations of antigen was injected for 300 sec at a flow rate of 30 μL/min. […] The dissociation of antigen was monitored for 30 min at the same flow rate. The sensor surface was regenerated by injecting 3 M MgCl₂ for 2×30 sec at a flow rate of 30 μL/min. Sensograms were analyzed with Biacore T100 Evaluation Software using a 1:1 Langmuir binding model.
Binding affinities of the parental antibodies were determined by Biacore analysis, as described above in section 1.6.1. Aggregation levels for all anti-human mesothelin ADCs were determined by SEC-HPLC and the DAR was analyzed using HIC-HPLC. In vitro potency was evaluated using a Crystal Violet cell-based cytotoxicity assay in A3 (A431 stabily transfected with human mesothelin (MSLN), MSLN^hi), OVCAR3 (human ovarian, MSLN^hi), HEC-251 (human endometroid, MSLN^med), H226 (human lung squamous cell mesothelioma, MSLN^lo, and A431 parental (MSLN^neg) cells. The results of the DAR, aggregation, and cytotoxicity analyses are shown in Table 50.
For B24, the Kd turned out to be 1.4 nM.

As to B25, the Kd was found to be 1.1 nM.

B26: the Kd was determined as 8.5 nM.

Turning to B27, the Kd is 4.2 nM.

B28: the Kd turned out to be 6.9 nM.

For orientation: EC50 means the concentration giving half of the maximal effect. As a reminder, the Kd is a measure of binding affinity in units of concentration.
